The source of these data is patent publication US20060121042A1 (AstraZeneca / MedImmune, published 2006).

One test has as its target T1, mEphA3 (mouse, UniProt P29319).
T1 construct: part of an Fc fusion; also called rmuEphA3-Fc
T1 sequence (receptor-Fc fusion, looked up): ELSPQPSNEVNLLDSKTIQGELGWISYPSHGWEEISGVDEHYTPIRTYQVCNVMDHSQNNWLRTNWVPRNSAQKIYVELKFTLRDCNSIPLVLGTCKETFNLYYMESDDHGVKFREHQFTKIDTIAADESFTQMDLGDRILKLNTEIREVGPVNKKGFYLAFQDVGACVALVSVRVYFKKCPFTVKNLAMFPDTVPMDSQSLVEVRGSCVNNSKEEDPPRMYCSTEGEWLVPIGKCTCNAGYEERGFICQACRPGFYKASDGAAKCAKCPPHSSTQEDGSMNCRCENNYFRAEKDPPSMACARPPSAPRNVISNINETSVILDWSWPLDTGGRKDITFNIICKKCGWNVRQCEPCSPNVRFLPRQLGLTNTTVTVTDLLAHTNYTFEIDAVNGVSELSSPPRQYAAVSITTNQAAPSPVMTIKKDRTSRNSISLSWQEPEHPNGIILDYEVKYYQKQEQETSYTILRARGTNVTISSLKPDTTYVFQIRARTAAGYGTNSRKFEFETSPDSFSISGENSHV
Nature of the test: ELISA, receptor coated on the plate, purified IgG, anti-human kappa-HRP.

In a further test the target is T2, mEphA4 (mouse, UniProt Q03137).
T2 construct: part of an Fc fusion; also called rmuEphA4-Fc
T2 sequence (Q03137 20-547 limits assumed): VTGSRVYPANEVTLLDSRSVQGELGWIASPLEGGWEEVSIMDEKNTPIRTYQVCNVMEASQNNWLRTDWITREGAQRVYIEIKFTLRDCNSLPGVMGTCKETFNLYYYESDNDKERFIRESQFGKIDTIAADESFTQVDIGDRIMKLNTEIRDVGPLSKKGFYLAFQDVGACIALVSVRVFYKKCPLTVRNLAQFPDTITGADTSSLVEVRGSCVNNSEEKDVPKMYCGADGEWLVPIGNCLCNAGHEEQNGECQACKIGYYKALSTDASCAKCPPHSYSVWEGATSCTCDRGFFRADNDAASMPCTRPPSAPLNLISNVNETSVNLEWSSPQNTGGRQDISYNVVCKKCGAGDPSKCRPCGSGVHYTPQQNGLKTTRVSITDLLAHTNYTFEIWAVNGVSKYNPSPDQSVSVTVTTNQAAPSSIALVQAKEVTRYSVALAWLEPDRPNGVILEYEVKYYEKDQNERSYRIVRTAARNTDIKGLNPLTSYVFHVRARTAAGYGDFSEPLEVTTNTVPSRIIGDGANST
Described as above.

The next test has as its target T3, mEphA7 (mouse, UniProt Q61772).
T3 construct: part of an Fc fusion; also called rmuEphA7-Fc
T3 sequence (receptor-Fc fusion, looked up): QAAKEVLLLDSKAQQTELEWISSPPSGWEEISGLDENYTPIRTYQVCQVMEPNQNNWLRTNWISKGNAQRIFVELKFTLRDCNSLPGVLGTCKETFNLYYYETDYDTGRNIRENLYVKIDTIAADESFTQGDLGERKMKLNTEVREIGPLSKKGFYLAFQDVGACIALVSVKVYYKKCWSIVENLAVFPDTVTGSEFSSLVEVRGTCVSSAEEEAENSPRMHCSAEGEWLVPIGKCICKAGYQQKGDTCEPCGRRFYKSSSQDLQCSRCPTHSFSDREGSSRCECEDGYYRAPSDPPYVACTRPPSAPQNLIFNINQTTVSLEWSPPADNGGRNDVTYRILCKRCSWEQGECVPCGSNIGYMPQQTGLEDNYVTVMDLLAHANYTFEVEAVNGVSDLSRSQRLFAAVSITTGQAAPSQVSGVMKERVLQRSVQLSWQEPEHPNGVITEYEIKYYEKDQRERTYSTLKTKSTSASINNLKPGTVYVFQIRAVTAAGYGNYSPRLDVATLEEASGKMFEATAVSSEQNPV
The test is described as above.

Test [1] concerns the target T4, Human EphA4-His fusion protein (human, UniProt P54764 20-547).
T4 construct: also called rhuEphA4-His; not shown: Histidine tag
Nature of the test: BIAcore, IgG immobilized on the sensor chip, EphA4-his as analyte. On the procedure: (§1) FIG. 15A-15B. […] Binding affinities were measured using the BIAcore assay. […] Variant kinetic measurements for human EphA4 and were obtained using BIAcore with immobilized variant antibodies and human EphA4-Fc and EphA4-His as analytes.

For the next test, the target named is T5, r murine EphA3 (mouse, UniProt P29319).
T5 construct: recombinant Fc fusion (R&D Systems); also called rmuEphA3-Fc; mEphA3
T5 sequence (receptor-Fc fusion, looked up): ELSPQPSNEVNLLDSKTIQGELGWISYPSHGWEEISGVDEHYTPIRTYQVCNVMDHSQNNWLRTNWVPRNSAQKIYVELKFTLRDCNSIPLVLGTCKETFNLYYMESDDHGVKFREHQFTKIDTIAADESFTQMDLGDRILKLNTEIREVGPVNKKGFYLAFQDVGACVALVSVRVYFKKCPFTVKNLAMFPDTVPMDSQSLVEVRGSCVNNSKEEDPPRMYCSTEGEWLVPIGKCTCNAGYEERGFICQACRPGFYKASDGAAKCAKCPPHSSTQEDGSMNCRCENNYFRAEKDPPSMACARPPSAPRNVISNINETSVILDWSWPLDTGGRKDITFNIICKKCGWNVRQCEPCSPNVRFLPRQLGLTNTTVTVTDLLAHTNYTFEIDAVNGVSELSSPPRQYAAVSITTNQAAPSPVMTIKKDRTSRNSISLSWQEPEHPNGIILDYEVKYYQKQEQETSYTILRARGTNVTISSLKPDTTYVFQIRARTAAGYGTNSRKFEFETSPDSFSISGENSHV
Nature of the test: activity ELISA, IgG on coated antigen.

The target in another test is T6, r murine EphA7 (mouse, UniProt Q61772).
T6 construct: recombinant Fc fusion (R&D Systems); also called rmuEphA7-Fc; mEphA7
T6 sequence (receptor-Fc fusion, looked up): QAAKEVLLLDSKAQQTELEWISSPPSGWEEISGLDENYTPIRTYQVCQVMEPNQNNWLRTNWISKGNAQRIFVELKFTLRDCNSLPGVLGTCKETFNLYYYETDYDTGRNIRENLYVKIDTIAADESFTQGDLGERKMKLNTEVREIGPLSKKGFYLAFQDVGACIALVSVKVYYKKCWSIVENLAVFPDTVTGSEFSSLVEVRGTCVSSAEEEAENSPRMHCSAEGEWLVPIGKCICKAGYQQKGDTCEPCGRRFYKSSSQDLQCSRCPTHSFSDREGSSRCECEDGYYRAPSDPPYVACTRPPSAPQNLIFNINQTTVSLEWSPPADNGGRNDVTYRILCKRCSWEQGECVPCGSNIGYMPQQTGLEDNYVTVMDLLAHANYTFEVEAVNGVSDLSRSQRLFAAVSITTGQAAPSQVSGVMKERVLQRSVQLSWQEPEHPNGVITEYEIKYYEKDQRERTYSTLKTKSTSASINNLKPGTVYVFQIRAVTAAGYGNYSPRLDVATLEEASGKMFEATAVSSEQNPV
In words: activity ELISA, IgG on coated antigen.

The next test addresses T7, r murine EphA4 (mouse, UniProt Q03137).
T7 construct: recombinant Fc fusion (R&D Systems); also called rmuEphA4-Fc; mEphA4
Nature of the test: activity ELISA, IgG on coated antigen.

The target in test [2] is T8, Human EphA4-Fc fusion protein (human, UniProt P54764 20-547).
T8 construct: not shown: Fc portion of a human IgG1
T8 sequence (P54764 20-547): as the sequence (Q03137 20-547 limits assumed) above, with A59P, S121N, G124V, Q250R, N251S, S270T, R378K, S406N counted along it
In words: BIAcore, IgG immobilized on the sensor chip, EphA4-Fc as analyte; koff and KD printed as ***, comment: off-rate below LOD. The procedure: as §1

T4 sequence (P54764 20-547): as the sequence (Q03137 20-547 limits assumed) above, with A59P, S121N, G124V, Q250R, N251S, S270T, R378K, S406N counted along it
T7 sequence (Q03137 20-547 limits assumed): as the sequence (Q03137 20-547 limits assumed) above

B1: 6B7 IgG1 (affinity optimized combinatorial variant of mAb GEA44 in human IgG1 format) (antibody, V domains shown)
VH: QVQLLQSGAEVKKPGASVKVPCKASGYTFTSRAMSWVRQAPGQGLEWMGWINTNTGNPTYAQGFTGRFVFSLDTSVSTAYLQISSLKAEDTAVYYCARVRFTVYGDGMDVWGQGTLVTVSS
VL: EIVLTQSPATLSVSPGERATLSCRASQSVSSNPAWYQQKPGQAPRLLIYGASTRATGIPDRFSASGSGTDFTLTISRVEPEDFAVYYCQQYGPSWTFGQGTKVEIK
As to B1, the binding result with mEphA3, with mEphA4, in the test with mEphA7, with r murine EphA3, with r murine EphA7 and with r murine EphA4 was “binds” each time. The Kd in test [1] worked out at 1.2 nM. Also, the koff in test [1] was found to be 0.000353 s⁻¹. The kon in test [1] amounted to 295000 M⁻¹ s⁻¹; in test [2], 793000 M⁻¹ s⁻¹.
